Experimental data: US20240182592A1 (CHIA TAI TIANQING PHARMACEUTICAL GROUP, published 2024)
Where a chain is given by its changes, count along the chain named.

T1: human BCMA-His (ACRO, product catalog No. BCA-H522y) (human, UniProt Q02223 1-54, biotin-conjugated in the ELISAs of Examples 5 and 6.1 (site not stated))
T1 construct: Bought protein; also called BCMA-His protein; biotin-conjugated recombinant BCMA-His protein; not shown: His tag
T1 sequence (looked up): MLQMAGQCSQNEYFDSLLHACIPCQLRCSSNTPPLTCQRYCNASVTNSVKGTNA

T2: human TACI protein (human, UniProt O14836 2-166, limits assumed)
T2 sequence (looked up): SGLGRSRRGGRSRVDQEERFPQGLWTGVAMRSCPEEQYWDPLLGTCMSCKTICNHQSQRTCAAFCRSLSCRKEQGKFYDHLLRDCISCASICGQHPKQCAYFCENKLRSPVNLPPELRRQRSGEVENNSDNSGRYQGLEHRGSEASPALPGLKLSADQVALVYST

T3: human BCMA protein (human, UniProt Q02223 1-54, limits assumed)
T3 construct: also called hBCMA; Antigen BCMA
T3 sequence (looked up): T1 sequence (looked up)

T4: human BCMA on cells (human, UniProt Q02223 1-184)
T4 construct: whole, on cells; also called CHO-hBCMA cells; U266 cells
T4 sequence (looked up): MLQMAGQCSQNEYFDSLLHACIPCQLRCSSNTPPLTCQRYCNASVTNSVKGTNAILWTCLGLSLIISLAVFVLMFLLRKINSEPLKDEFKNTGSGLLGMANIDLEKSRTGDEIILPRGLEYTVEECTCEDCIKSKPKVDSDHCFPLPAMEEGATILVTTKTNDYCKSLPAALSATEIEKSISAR

B1: 1A1-Fc (antibody, human IgG1, V domains shown)
VH: QVQLVESGGGSVQAGGSLRLSCTASGYTFRGWNKHWYRQAPGKERELVSSIFRDGKTAYTDSVKGRFTISQDNADATVYLQMNSLKPEDTAMYYCKYDLPGSGLPAFWGQGTLVTVSS
notes: Camel VHH fused to human IgG1 Fc; also called anti-human BCMA VHH-Fc chimeric antibody 1A1-Fc
B2: 1B10-Fc (antibody, human IgG1, V domains shown)
VH: B1 VH with Q1E, N73S, A106E
notes: Camel VHH fused to human IgG1 Fc; also called anti-human BCMA VHH-Fc chimeric antibody 1B10-Fc
B3: 1A10-Fc (antibody, human IgG1, V domains shown)
VH: QVQLVESGGGSVQAGGSLRLSCAASGYSSNVACMAWYRQAPGKEREWVATIVADFGTTNYAASVKGRFTISQDNAKNTVYLQMNSLKPEDSAMYYCAATQRGGIDWCDEINYWGQGTLVTVSS
notes: also called anti-human BCMA VHH-Fc chimeric antibody 1A10-Fc
B4: 1A11-Fc (antibody, human IgG1, V domains shown)
VH: QVQLVESGGGSVQAGGSLRLSCAASGVTFNSACMGWFRQAPGKEREGVARIETGYGGTVYADSVKGRFTISRDNAKNTVYLQMNSLKPEDTAMYYCAAKRSWCTPTWWHELDYNYWGQGTQVTVSS
notes: also called anti-human BCMA VHH-Fc chimeric antibody 1A11-Fc

target: T1, human BCMA-His (ACRO, product catalog …); assay: competition ELISA (chessboard), biotin-BCMA-His; competitor: 1A11-Fc
Method: (§1) The anti-human BCMA VHH-Fc chimeric antibodies were diluted to 2 μg/mL and allowed to coat a high-adsorption microplate. The plate was washed and then blocked. […] According to a chessboard arrangement, the incubated mixtures of antigen and antibody or the biotin-conjugated BCMA-His protein alone (control group) were added in sequence to the well plate at 100 μL/well. The plate was incubated at 37° C. for 1 h. The plate was washed to remove unbound biotin-conjugated recombinant BCMA-His protein. HRP-conjugated streptavidin (eBioscience, product catalog No. 18-4100-51) was added, and the plate was washed 5 times and then subjected to color development. The light absorption signal values at the wavelength of 450 nm and the reference wavelength of 650 nm were measured. The blocking rate of one antibody for the binding signal of another antibody to BCMA-Bio was calculated according to the formula blocking rate=(signal value of control group−signal value of sample group)/signal value of control group×100%. Positive control groups in which antibodies competed with themselves are shown on the diagonal line “\” of the chessboard (indicated in gray).

| Binder | blocking rate |
| --- | --- |
| B1 | 99.4% |
| B2 | 99.5% |
| B3 | 32.6% |

target: T5, cynomolgus monkey BCMA on transiently transfected HEK293T cells (cynomolgus monkey, UniProt Q02223 1-184 (human entry)); assay: flow cytometry, HEK293T cells transiently transfected with cynomolgus monkey BCMA
T5 construct: it may be a nucleotide entry; also called HEK293T-CynoBCMA
From the text: The cells were washed and then tested using a flow cytometer (Thermo Fisher Scientific Inc., Attune NXT).

T5 sequence (Q02223 other isoform, or with tags, fused parts or gaps): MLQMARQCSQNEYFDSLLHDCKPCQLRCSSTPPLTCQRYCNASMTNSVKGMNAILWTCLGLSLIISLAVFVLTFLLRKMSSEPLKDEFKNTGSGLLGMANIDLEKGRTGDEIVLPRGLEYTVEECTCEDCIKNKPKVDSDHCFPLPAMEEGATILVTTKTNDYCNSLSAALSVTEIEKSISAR

| Binder | EC50 |
| --- | --- |
| B4 | 10.4 nM |
| B3 | 2.02 nM |

target: T2, human TACI protein; assay: SPR (Biacore T200), antibody captured by anti-hIgG (Fc)
Method: (§2) The anti-human BCMA VHH-Fc chimeric antibodies were tested for specificity using a biomolecular interaction analysis system (GE, Biacore T200). An anti-hIgG (Fc) antibody (GE, product catalog No. BR-1008-39) was amino-coupled to a CM5 sensor chip. The anti-human BCMA VHH-Fc chimeric antibodies were diluted to 2 μg/mL with a running buffer (137 mM NaCl, 2.7 mM KCl, 10 mM Na₂HPO₄.12H₂O, 1.8 mM KH₂PO₄, 0.05% surfactant P-20 (w/v), pH 7.4), and capture was allowed for 90 s by passing the dilutions through experimental channels at a flow rate of 30 μL/min. Human TACI or BAFF-R protein was diluted to 100 nM with the running buffer, and binding was allowed by passing the dilution at a flow rate of 50 μL/min. The binding signal curve was observed.

| Binder | binding result |
| --- | --- |
| B4 | no binding (tested: 100 nM) |
| B1 | no binding (tested: 100 nM) |
| B2 | no binding (tested: 100 nM) |
| B3 | no binding (tested: 100 nM) |

target: human BAFF-R protein (human, UniProt Q96RJ3 7-71, limits assumed); assay: as above
Method: as §2

human BAFF-R protein, sequence (Q96RJ3 7-71 limits assumed): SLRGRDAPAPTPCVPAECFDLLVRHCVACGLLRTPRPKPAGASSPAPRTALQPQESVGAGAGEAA

| Binder | binding result |
| --- | --- |
| B4 | no binding (tested: 100 nM) |
| B1 | no binding (tested: 100 nM) |
| B2 | no binding (tested: 100 nM) |
| B3 | no binding (tested: 100 nM) |

target: T1, human BCMA-His (ACRO, product catalog …); assay: competition ELISA (chessboard), biotin-BCMA-His; competitor: 1B10-Fc
Method: as §1

| Binder | blocking rate |
| --- | --- |
| B4 | 99.4% |
| B1 | 101% |
| B3 | 46.4% |

target: cynomolgus monkey BCMA protein (cynomolgus monkey, UniProt A0A2K5UD97 1-53); assay: SPR (Biacore T200)
Sequence (A0A2K5UD97 entry or part of it limits assumed): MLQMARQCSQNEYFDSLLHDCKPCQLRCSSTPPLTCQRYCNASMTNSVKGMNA

| Binder | binding result |
| --- | --- |
| B1 | no binding |
| B2 | no binding |

target: T3, human BCMA protein; assay: SPR (Biacore T200), antibody captured by anti-hIgG, human BCMA as analyte, 1:1 model
Method: The affinity of the test antibody for human BCMA protein was determined by Biacore T200 (GE) as follows:
The response signals were detected in real time using Biacore software, and association and dissociation curves were obtained. The buffer used in the experiment was Biacore universal buffer (137 mM NaCl, 2.7 mM KCl, 10 mM Na₂HPO₄.12H₂O, 1.8 mM KH₂PO₄, 0.05% surfactant P-20 (w/v), pH 7.4). […] The flow rate in the flow cell was at 50 μL/min, the association was performed for 240 s, the dissociation was performed for 1400 s, the regeneration was performed using 3 M MgCl₂ (GE) for 60 s, and the baseline was stable. Results were obtained by calculation according to the affinity and kinetics 1:1 binding mode in biacore evaluation software.

| Binder | Kd |
| --- | --- |
| B4 | 3.96 nM |
| B3 | 0.94 nM |

target: T4, human BCMA on cells; assay: flow cytometry, CHO-hBCMA cells
From the text: (§3) The binding of the anti-human BCMA VHH-Fc chimeric antibodies to target cells with different BCMA expression levels was detected by flow cytometry. The CHO-hBCMA cells (iCarTab Biotechnology (Suzhou) Co. Ltd., product catalog No. AKD001A) were a stably transfected cell line highly expressing BCMA. The U266 cells (Cell Culture Center, Institute of Basic Medical Sciences, Chinese Academy of Medical Sciences, product catalog No. 3111C0001CCC000684) were a natural human myeloma cell line expressing BCMA at medium levels. The PRMI8226 cells (Cell Culture Center, Institute of Basic Medical Sciences, Chinese Academy of Medical Sciences, product catalog No. 3111C0001CCC000083) were a natural human myeloma cell line expressing BCMA at low levels. The HUVEC cells (ScienCell Research Laboratories, product catalog No. […] 8000) were a human umbilical vein endothelial cell line not expressing BCMA. […] A PE-labeled anti-human IgG Fc antibody (Jackson Immuno Rescarch, product catalog No. 109-116-170) was added, and the mixture was incubated on ice for 0.5 h. The cells were washed and then tested using a flow cytometer (Thermo Fisher Scientific Inc., Attune NXT).

| Binder | EC50 |
| --- | --- |
| B4 | 2.08 nM |
| B1 | 3.04 nM |
| B2 | 2.51 nM |
| B3 | 4.28 nM |

target: T1, human BCMA-His (ACRO, product catalog …); assay: competitive ELISA: antibody blocks binding of biotin-BCMA-His to coated APRIL
Method: The plate was incubated at 37° C. for 1 h and then washed to remove unbound biotin-conjugated recombinant BCMA-His protein. HRP-conjugated streptavidin (eBioscience, product catalog No. 18-4100-51) was added, and the plate was washed 5 times and then subjected to color development. The light absorption signal values at the wavelength of 450 nm and the reference wavelength of 650 nm were measured.

| Binder | IC50 |
| --- | --- |
| B4 | 0.76 nM |
| B1 | 0.34 nM |
| B2 | 0.26 nM |
| B3 | 0.41 nM |

target: T4, human BCMA on cells; assay: flow cytometry, U266 cells
From the text: as §3

| Binder | EC50 |
| --- | --- |
| B4 | 1.26 nM |
| B1 | 2.77 nM |
| B2 | 1.72 nM |
| B3 | 4.64 nM |

target: T1, human BCMA-His (ACRO, product catalog …); assay: competition ELISA (chessboard), biotin-BCMA-His; competitor: 1A10-Fc
Method: as §1

| Binder | blocking rate |
| --- | --- |
| B4 | 21.6% |
| B1 | 7.6% |
| B2 | 26.7% |

target: T1, human BCMA-His (ACRO, product catalog …); assay: competition ELISA (chessboard), biotin-BCMA-His; competitor: 1A1-Fc
Method: as §1

| Binder | blocking rate |
| --- | --- |
| B4 | 101% |
| B2 | 100% |
| B3 | 36.9% |
